Source: PMC3115021, “Dynamics of Cdk1 Substrate Specificity during the Cell Cycle” (Molecular Cell, 2011)

B1: TOS4: putative transcription factor, tested as Cdk1 substrate (protein, UniProt Q06266 1-489, looked up)
Protein TOS4: MSSQFPSSPYRTVDPYSPPNYKQQPNCPSSNYEKAGKTASESIGNFGKGDYPTPFPSSSIGRVSSPVRSNKVDAIPSSPAFPGQLAETSPKFSSKLSSPSRHTRVINAELDPSKISTITVGRNSSQCDVALCKNKFISRVHASITYLPQTNEVKIHCFSMNGLIVTYRKQFDCYQLKDTMNNNNRAYRLVPRFSNEKCVKEIQDEGGFINFTLEEGDTVYMTYYKGIMLDFRQVLLRISLKEKNSSSEPLRFEKKAEFESESETKHMGSIRKHPLIFTDTSMDRPKKILKDSNKISIGSDSGVAERMLNHFLNSKSSPLSSVSSVDHEEQTLRQDSLSSDKNPMTMKKPKLNKRVLPSKPKKSVKENLDELSRRNIDVMHLQHILTNHLAFANVQQTPLFQLQQVNSQISELSRDELRSILSDAKCVGVIYRHGKDAAGKPLDEEYFYDLENDDDYERRNLVSSLKGGRTGLRSCRRTHKQYFWKKPAK
B2: SWI5: purified yeast protein tested as Cdk1 substrate (protein, UniProt P08153 1-709, looked up)
Transcriptional factor SWI5: MDTSNSWFDASKVQSLNFDLQTNSYYSNARGSDPSSYAIEGEYKTLATDDLGNILNLNYGETNEVIMNEINDLNLPLGPLSDEKSVKVSTFSELIGNDWQSMNFDLENNSREVTLNATSLLNENRLNQDSGMTVYQKTMSDKPHDEKKISMADNLLSTINKSEINKGFDRNLGELLLQQQQELREQLRAQQEANKKLELELKQTQYKQQQLQATLENSDGPQFLSPKRKISPASENVEDVYANSLSPMISPPMSNTSFTGSPSRRNNRQKYCLQRKNSSGTVGPLCFQELNEGFNDSLISPKKIRSNPNENLSSKTKFITPFTPKSRVSSATSNSANITPNNLRLDFKINVEDQESEYSEKPLGLGIELLGKPGPSPTKSVSLKSASVDIMPTIPGSVNNTPSVNKVSLSSSYIDQYTPRGKQLHFSSISENALGINAATPHLKPPSQQARHREGVFNDLDPNVLTKNTDNEGDDNEENEPESRFVISETPSPVLKSQSKYEGRSPQFGTHIKEINTYTTNSPSKITRKLTTLPRGSIDKYVKEMPDKTFECLFPGCTKTFKRRYNIRSHIQTHLEDRPYSCDHPGCDKAFVRNHDLIRHKKSHQEKAYACPCGKKFNREDALVVHRSRMICSGGKKYENVVIKRSPRKRGRPRKDGTSSVSSSPIKENINKDHNGQLMFKLEDQLRRERSYDGNGTGIMVSPMKTNQR
B3: XBP1: purified yeast protein tested as Cdk1 substrate (protein, UniProt P40489 1-647, looked up)
Transcriptional repressor XBP1: MKYPAFSINSDTVHLTDNPLDDYQRLYLVSVLDRDSPPASFSAGLNIRKVNYKSSIAAQFTHPNFIISARDAGNGEEAAAQNVLNCFEYQFPNLQTIQSLVHEQTLLSQLASSATPHSALHLHDKNILMGKIILPSRSNKTPVSASPTKQEKKALSTASRENATSSLTKNQQFKLTKMDHNLINDKLINPNNCVIWSHDSGYVFMTGIWRLYQDVMKGLINLPRGDSVSTSQQQFFCKAEFEKILSFCFYNHSSFTSEESSSVLLSSSTSSPPKRRTSTGSTFLDANASSSSTSSTQANNYIDFHWNNIKPELRDLICQSYKDFLINELGPDQIDLPNLNPANFTKRIRGGYIKIQGTWLPMEISRLLCLRFCFPIRYFLVPIFGPDFPKDCESWYLAHQNVTFASSTTGAGAATAATAAANTSTNFTSTAVARPRQKPRPRPRQRSTSMSHSKAQKLVIEDALPSFDSFVENLGLSSNDKNFIKKNSKRQKSSTYTSQTSSPIGPRDPTVQILSNLASFYNTHGHRYSYPGNIYIPQQRYSLPPPNQLSSPQRQLNYTYDHIHPVPSQYQSPRHYNVPSSPIAPAPPTFPQPYGDDHYHFLKYASEVYKQQNQRPAHNTNTNMDTSFSPRANNSLNNFKFKTNSKQ
B4: SWI6: cell cycle-related transcription factor, tested as Cdk1 substrate (protein, UniProt P09959 1-803, looked up)
Regulatory protein SWI6: MALEEVVRYLGPHNEIPLTLTRDSETGHFLLKHFLPILQQYHDTGNINETNPDSFPTDEERNKLLAHYGIAVNTDDRGELWIELEKCLQLLNMLNLFGLFQDAFEFEEPETDQDEEDPSHSKLPENKTKSENSKDNISSKRINNLQDMSLDSDAHRELGSPLKKLKIDTSVIDAESDSTPNTARGKPNDDINKGPSGDNENNGTDDNDRTAGPIITFTHDLTSDFLSSPLKIMKALPSPVVNDNEQKMKLEAFLQRLLFPEIQEMPTSLNNDSSNRNSEGGSSNQQQQHVSFDSLLQEVNDAFPNTQLNLNIPVDEHGNTPLHWLTSIANLELVKHLVKHGSNRLYGDNMGESCLVKAVKSVNNYDSGTFEALLDYLYPCLILEDSMNRTILHHIIITSGMTGCSAAAKYYLDILMGWIVKKQNRPIQSGTNEKESKPNDKNGERKDSILENLDLKWIIANMLNAQDSNGDTCLNIAARLGNISIVDALLDYGADPFIANKSGLRPVDFGAGTSKLQNTNGGDENSKMVSKGDYDGQKNGKAKKIRSQLLKNPPETTSLINDVQNLLNSISKDYENETVQYNEKLEKLHKELNEQREELANSREQLANVKQLKDEYSLMQEQLTNLKAGIEEEEESFREESKKLGIIADESSGIDWDSSEYDADEPFKVEFLSDFLEDKLQKNYEGDISKLLEAESKEQIMEQIRNQLPAEKIQSMLPPTVLLKARINAYKRNDKHLTNVLDTISTKQSELENKFRRVLSLCLKIDENKVDNMLDGLLQAISSEDPQDIDTDEMQDFLKKHAS
B5: WHI5: repressor of the G1-specific SBF transcription factor, tested as Cdk1 substrate (protein, UniProt Q12416 1-295, looked up)
G1-specific transcriptional …: MSLRTPKRSRTSDEQEQEQEQEQVQNPDTHVNNEHQQRPGPTTLLSTPVRLKNGFGTPSPPSPPGITKSITKSRRRPSTTSLQGIFMSPVNKRRVGITAHGRVYDHNDDGHESESEDDENEEENENQKKYDGHVSMPLLPPTTPKSRRSEVFLSPSPRLRSPPTAARRSTGERPIREISHTLRTRLNYALVKLQNGWTDKTLPELETELAPAVQTPPRRYHNRFPDSADAGTSAHTAFLQALGGHPPREEATAVETLMLLSSPTKKQQHRPVPATSAGEPTDETEPESDTEVETS

Assays:
Assay in all cases: Quantitative phosphorylation assay of T33-Sic1ΔC constructs and recombinant substrates
Type in all cases: biochemical
Conditions in all cases: Table S2; purified protein substrate; relative values, not divided by [S]
Clb3-Cdk1 = biological target: T1, Clb3-Cdk1 (Saccharomyces cerevisiae, UniProt P00546+P24870)
T1 construct: We purified the four cyclin-Cdk1 complexes from yeast; made in house; host or cells: S. cerevisiae strain DOM0957 (gal-CLB3-TAP, sic1 deleted); Cks1 from bacteria
T1 sequence (P00546 2-298 limits assumed): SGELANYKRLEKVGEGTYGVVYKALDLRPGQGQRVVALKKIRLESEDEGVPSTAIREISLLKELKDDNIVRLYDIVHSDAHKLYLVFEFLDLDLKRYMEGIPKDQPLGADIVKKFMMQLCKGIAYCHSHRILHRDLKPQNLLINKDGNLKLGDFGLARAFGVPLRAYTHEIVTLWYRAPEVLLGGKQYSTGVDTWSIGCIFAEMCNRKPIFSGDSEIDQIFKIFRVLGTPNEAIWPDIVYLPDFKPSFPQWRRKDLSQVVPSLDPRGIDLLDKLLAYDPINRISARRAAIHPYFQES
T1 sequence (P24870 whole entry partner): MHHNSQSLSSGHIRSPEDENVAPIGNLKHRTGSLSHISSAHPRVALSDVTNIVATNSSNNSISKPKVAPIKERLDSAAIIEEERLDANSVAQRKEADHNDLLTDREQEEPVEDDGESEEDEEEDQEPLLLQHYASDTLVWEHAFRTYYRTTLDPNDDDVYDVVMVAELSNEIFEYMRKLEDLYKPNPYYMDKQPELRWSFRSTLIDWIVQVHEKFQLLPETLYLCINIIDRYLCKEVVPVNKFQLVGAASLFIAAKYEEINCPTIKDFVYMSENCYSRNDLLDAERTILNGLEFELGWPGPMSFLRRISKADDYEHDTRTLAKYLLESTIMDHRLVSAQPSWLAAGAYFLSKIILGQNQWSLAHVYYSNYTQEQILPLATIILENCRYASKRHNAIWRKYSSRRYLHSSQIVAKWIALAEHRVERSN
T1 sequence (P20486 whole entry partner): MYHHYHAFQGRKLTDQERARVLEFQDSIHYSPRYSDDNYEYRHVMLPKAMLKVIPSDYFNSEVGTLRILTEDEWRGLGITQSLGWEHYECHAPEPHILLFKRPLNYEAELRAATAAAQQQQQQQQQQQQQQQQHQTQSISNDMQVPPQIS

Cln2-Cdk1 = biological target: T2, Cln2-Cdk1 (Saccharomyces cerevisiae, UniProt P00546+P20438)
T2 construct: We purified the four cyclin-Cdk1 complexes from yeast; made in house; host or cells: S. cerevisiae strain DMY305 (galactose-induced); Cks1 from bacteria
T2 sequence (P00546 2-298 limits assumed): as the sequence (P00546 2-298 limits assumed) above
T2 sequence (P20438 whole entry partner): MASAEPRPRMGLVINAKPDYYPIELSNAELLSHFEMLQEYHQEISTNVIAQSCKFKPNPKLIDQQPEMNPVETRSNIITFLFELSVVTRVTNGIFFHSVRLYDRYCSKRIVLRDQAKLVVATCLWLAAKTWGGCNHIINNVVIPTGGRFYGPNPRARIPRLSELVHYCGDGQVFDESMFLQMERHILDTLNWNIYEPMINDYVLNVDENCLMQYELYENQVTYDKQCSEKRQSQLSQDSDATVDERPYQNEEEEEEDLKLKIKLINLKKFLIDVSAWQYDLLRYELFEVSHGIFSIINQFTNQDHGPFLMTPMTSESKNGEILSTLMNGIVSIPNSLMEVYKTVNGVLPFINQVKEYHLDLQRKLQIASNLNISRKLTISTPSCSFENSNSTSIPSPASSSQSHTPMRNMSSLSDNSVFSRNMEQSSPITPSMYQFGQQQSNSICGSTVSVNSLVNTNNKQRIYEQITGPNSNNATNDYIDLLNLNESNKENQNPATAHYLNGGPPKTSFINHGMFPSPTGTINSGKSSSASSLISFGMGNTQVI
T2 sequence (P20486 whole entry partner): as the sequence (P20486 whole entry partner) above

Clb5-Cdk1 = biological target: T3, Clb5-Cdk1 (Saccharomyces cerevisiae, UniProt P00546+P30283)
T3 construct: We purified the four cyclin-Cdk1 complexes from yeast; made in house; host or cells: S. cerevisiae strain DOM0076 (gal-CLB5-TAP, sic1 deleted); Cks1 from bacteria
T3 sequence (P00546 2-298 limits assumed): as the sequence (P00546 2-298 limits assumed) above
T3 sequence (P30283 whole entry partner): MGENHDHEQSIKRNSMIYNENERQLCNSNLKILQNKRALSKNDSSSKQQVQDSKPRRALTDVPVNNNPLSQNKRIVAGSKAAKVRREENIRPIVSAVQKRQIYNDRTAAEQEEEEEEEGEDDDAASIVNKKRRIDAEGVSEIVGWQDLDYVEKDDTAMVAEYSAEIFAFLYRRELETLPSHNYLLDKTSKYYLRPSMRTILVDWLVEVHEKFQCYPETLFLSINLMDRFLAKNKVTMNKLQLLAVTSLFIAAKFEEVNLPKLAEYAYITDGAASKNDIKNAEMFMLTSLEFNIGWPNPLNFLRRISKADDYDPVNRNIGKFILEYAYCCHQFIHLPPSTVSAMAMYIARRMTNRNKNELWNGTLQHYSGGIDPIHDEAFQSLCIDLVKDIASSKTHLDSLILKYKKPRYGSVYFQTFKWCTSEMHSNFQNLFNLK
T3 sequence (P20486 whole entry partner): as the sequence (P20486 whole entry partner) above

Clb2-Cdk1 = biological target: T4, Clb2-Cdk1 (Saccharomyces cerevisiae, UniProt P00546+P24869)
T4 construct: We purified the four cyclin-Cdk1 complexes from yeast; made in house; host or cells: S. cerevisiae strain DOM0077 (gal-CLB2-TAP, sic1 deleted); Cks1 from bacteria
T4 sequence (P00546 2-298 limits assumed): as the sequence (P00546 2-298 limits assumed) above
T4 sequence (P24869 2-491 partner limits assumed): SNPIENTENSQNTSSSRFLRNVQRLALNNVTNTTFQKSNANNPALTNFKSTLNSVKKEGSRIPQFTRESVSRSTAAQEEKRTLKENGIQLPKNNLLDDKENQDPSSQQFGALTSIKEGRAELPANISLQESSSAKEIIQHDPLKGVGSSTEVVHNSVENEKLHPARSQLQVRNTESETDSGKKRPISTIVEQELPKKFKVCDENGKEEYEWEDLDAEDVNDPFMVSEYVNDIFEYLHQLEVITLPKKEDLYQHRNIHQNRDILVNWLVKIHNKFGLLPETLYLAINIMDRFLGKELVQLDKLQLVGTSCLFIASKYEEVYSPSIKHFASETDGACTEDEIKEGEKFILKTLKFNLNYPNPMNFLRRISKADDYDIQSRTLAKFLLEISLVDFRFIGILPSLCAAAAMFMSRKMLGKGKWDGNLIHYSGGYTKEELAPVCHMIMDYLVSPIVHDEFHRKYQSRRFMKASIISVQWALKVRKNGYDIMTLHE
T4 sequence (P20486 whole entry partner): as the sequence (P20486 whole entry partner) above

Clb5hpm-Cdk1 = biological target: T5, Clb5hpm-Cdk1 (Saccharomyces cerevisiae, UniProt P00546)
T5 construct: made in house; host or cells: S. cerevisiae strain DOM0963 (gal-CLB5hpm-TAP, sic1 deleted); Cks1 from bacteria
T5 sequence (P00546 2-298 limits assumed): as the sequence (P00546 2-298 limits assumed) above
Method in brief: (§1)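 Yeast cyclin-Cdk1 complexes (1–10 nM, TAP-purified) phosphorylated 6His-T33-Sic1ΔC (other S/T-P sites mutated to Ala-Ala) or recombinant substrates at 0.5–2 μM, below KM, with 32P-γ-ATP. Initial velocities (≤10% turnover) from two or more time points, SDS-PAGE stopped; relative kcat/KM from v0 ratios.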

Clb2hpm-Cdk1 = biological target: T6, Clb2hpm-Cdk1 (Saccharomyces cerevisiae, UniProt P00546)
T6 construct: made in house; host or cells: S. cerevisiae strain DOM0964 (gal-CLB2hpm-TAP, sic1 deleted); Cks1 from bacteria
T6 sequence (P00546 2-298 limits assumed): as above
Method in brief: as §1

Clb3hpm-Cdk1 = biological target: T7, Clb3hpm-Cdk1 (Saccharomyces cerevisiae, UniProt P00546+P24870)
T7 construct: made in house; host or cells: S. cerevisiae strain MK0168 (gal-CLB3hpm-TAP, sic1 deleted); Cks1 from bacteria
Method in brief: as §1

Molecule	kcat/KM, Clb3 (Clb3-Cdk1) [relative units]	kcat/KM, Cln2 (Cln2-Cdk1) [relative units]	kcat/KM, Clb5 (Clb5-Cdk1) [relative units]	kcat/KM, Clb2 (Clb2-Cdk1) [relative units]	kcat/KM, Clb5hpm (Clb5hpm-Cdk1) [relative units]	kcat/KM, Clb2hpm (Clb2hpm-Cdk1) [relative units]	kcat/KM, Clb3hpm (Clb3hpm-Cdk1) [relative units]
B1	8.484	0.708	0.502	2.373	0.593	2.136	2.397
B2	1.686	0.178	0.475	2.961	0.172	1.387	0.207
B3	0.065	0.200	0.020	0.103	0.007	0.084	0.013
B4	0.105	0.004	0.118	0.412	0.058	0.481	0.075
B5	0.033	0.283	0.016	0.046	0.001	0.027	0.006
